Reference: the nanobody polyreactivity screen of Harvey et al. (2022)

experiment: yeast display, Sf9 membrane polyspecificity reagent, FACS + sequencing; frameworks hold sequencing errors
In short: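 Polyreactivity labels are assigned by the sorting gate from which each nanobody was recovered. The gates were low and high (top ~1%), set on anti-HA fluorescence for expression and streptavidin fluorescence for reagent binding. Before sorting, galactose-induced (36–48 hours) yeast display cells were stained for 1 hour at 4 °C with 10% biotinylated, detergent-solubilized Sf9 membrane reagent.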

Question: With “QVQLVETGGGLVQAGGSLRLSCAASGSIFRDNAMGWYRQAPGKESELVAAINVRDGDTFYADSVKGRFTISRDNAKNTVYLQMNSLKPEDTAVYYCAVAGATSYFAYDSWGQGTQVTVSS” as the sequence, how does the “polyreactivity (PSR sort gate)” value read?
Answer: low polyreactivity

Question: With “QVQLVETGGGLVQAGGSLRLSCAASGSIFSGNAMGRSRPAPGKERELVGAITGSGGSTYYADSVKGRFTITRDNAKNTVYLQMNSLKPVDTAVYYCAVLFRTFYYWGQGTQVTVSS” as the sequence, how does the “polyreactivity (PSR sort gate)” value read?
Answer: high polyreactivity

Question: For “QVQLVETGGGLVQAGGSLRLSCAASGSIFVLYAMVWSRQAPGKERELVAAISKRTGSSYYADSVKGRFTISRDHAKHTVYLQTNSLKPEDTAVYYCAARGRQYRYYDLDYWGQGTQVTLSS”, which “polyreactivity (PSR sort gate)” value is on record?
Answer: low polyreactivity

Question: For “QVQLVETGGGLVQAGGSLRLSCAASGSIFWSNAMGWYRQAPGKERELVAAITSGGRTYYADSVKGRFTISRDNAKNTVYLQMNSLKPEDTAVYYCAAYWNSATGFDYWGQVTQVTVSS”, which “polyreactivity (PSR sort gate)” value is on record?
Answer: high polyreactivity

Question: For “QVQLVETGGGLVQAGGSLRLSCAASGSSFGSYAMGWYREAPGKERELVAAISSSGASTYYADSVKGRFTISRDNAKITVYLQMNSLKPEDTAVYYCNAARRYPTRGGYWGQGTQVTVSS”, which “polyreactivity (PSR sort gate)” value is on record?
Answer: high polyreactivity

Question: For “QVQLVETGGGLVQAGGSLRLSCAASGSTFFINAMGWYRQAPGKERELVAAITSTDSTTYADSVKGRFTISRDNAKNTVYLQMNSLKPEDTAVYYCAKESIGQDPVSGAWARHEYDYWGQGTQVTVSS”, which “polyreactivity (PSR sort gate)” value is on record?
Answer: low polyreactivity

Question: Which “polyreactivity (PSR sort gate)” value does the source give for “QVQLVETGGGLVQAGGSLRLSCAASGSTFGWNAMGWYRQAPGKERELVAAITGGGSTYYADSVKGRFTISRDNAKNTVYLQMNSLKPEDTAVYYCEGDYWGQGTQVTVSS” here?
Answer: low polyreactivity

Question: For “QVQLVETGGGLVQAGGSLRLSCAASGSTLAPYVMGWYRQAPGKERELVAVISTRTGRTYYADSVKGRFTISRDNAKNTVYLQMNSLKPEDTAVYYCAAPVYPYQVQTYDYWGQGTQVTVSS”, which “polyreactivity (PSR sort gate)” value is on record?
Answer: high polyreactivity

Question: With “QVQLVETGGGLVQAGGSLRLSCAASGTLSSYAMGWYRPAPGTERELVAAISLSGGSTYADSVKGRFTISRDNAKNTVYLQMNSLKPEDTAVYYCAATSSFRYDYWGQGTQVTVSS” as the sequence, how does the “polyreactivity (PSR sort gate)” value read?
Answer: low polyreactivity

Question: With “QVQLVETGGGLVQAGGSLRLSCAASRSTIADNAMGWYRQAPGKERELVAAITRSGVRTYYADSVKGRFTISRDNAKNTVYLQMNSLKPEDTAVYYCAKRTYPSRIYDYWGQGTQVTVSS” as the sequence, how does the “polyreactivity (PSR sort gate)” value read?
Answer: low polyreactivity

Question: With “QVQLVETGGGLVQAGGSLRLSCAPSGITFYVYAMGWYTQAPGKERELVAAISSGSSTYYADSVKGSFTISRDNAKNTVYLQMNSLKPEDTAVYYCAARYRKYLSEYCGQGTQVTVSS” as the sequence, how does the “polyreactivity (PSR sort gate)” value read?
Answer: high polyreactivity

Question: Which “polyreactivity (PSR sort gate)” value does the source give for “QVQLVETGGGLVQAGGSLRLSCAPSGNTIIRYAMGWYRQAPGKERELVAAISYSGGRTYYADSVKGRFTISRDNAKNTVYLQMNSLKPEDTAVYYCNAASRYGGDYWGPGTQVTVSS” here?
Answer: high polyreactivity

Question: For “QVQLVETGGGLVQAGGSLRLSCDASVSTFRYYTMGWYRQAPGKERELVASIRRGGSTNYADSVKGRFTISRDNAKNTVYLQMNSLKPEDTAVYYCNAKKGVYNGDAAKYDYWGPGTQVTVSS”, which “polyreactivity (PSR sort gate)” value is on record?
Answer: high polyreactivity

Question: With “QVQLVETGGGLVQAGGSLRLSCPASGRIFEDNAMGWYRQEPGKERELVAAIDFSGGDTYYADSVKGRFTISRDNAKNTVYLQMNSLKPEDTAVYYCAAGRSGWGYDSWGQGTQVTVSS” as the sequence, how does the “polyreactivity (PSR sort gate)” value read?
Answer: low polyreactivity

Question: Which “polyreactivity (PSR sort gate)” value does the source give for “QVQLVETGGGLVQAGGSLRVSCAASGSTFSGYAMGWYRQAPGKERELVAAITRSGGRTYYADSVKGRFTISRDNAKNTVYLQMNSLLPEDTAVYYCATDRAYYHSYGRFGYWGQGTHVTVSS” here?
Answer: high polyreactivity

Question: For “QVQLVETGGGLVQAGGTLRLSCAPSGYTIYFYALGWDIQAPGTERELVAAISGSGGRTYYADSVKGRFTISRDNAKNTVYLQMNSLKPEDTAVYYCAARKYKRIYRISSGIGYYWGQGTQVTVSS”, which “polyreactivity (PSR sort gate)” value is on record?
Answer: high polyreactivity

Question: Which “polyreactivity (PSR sort gate)” value does the source give for “QVQLVETGGGLVQAGVSLRLSCAASGRTWGYDMGWYRQAPGKERELVAAIRNGASTYYADSVKGRFTISRDNAKNTVYLQMNSLKPEDTAVYYCAADYTVRVVATYDYWGQGTQVTVSS” here?
Answer: low polyreactivity

Question: For “QVQLVETGGGVVQAGGSLRISCAASGRIFLYYTMGWYRQAPGIERELVATIRSGDSTIYADAVKGRFTISRDNAKNTVYLQMNTLTPEDTAVYYCAADWDIFQQGANGAPYDYWGQGTQVTVSS”, which “polyreactivity (PSR sort gate)” value is on record?
Answer: low polyreactivity

Question: For “QVQLVETGGVLVQAGGSLRLSCAASGSIFQQNAMGGYRQAPGKERELVASISSGGRTNYADSVKGRCTISRDNAKNTVYLQMNSLKPEDTAVYYCAKTRIRYKPLHFYYWGQGTQVTVSS”, which “polyreactivity (PSR sort gate)” value is on record?
Answer: low polyreactivity

Question: For “QVQLVETGRGLVQAGGSLRLSCAASGLILVPNTMGWYRQAPGTERELVAAISYSGGGPYYADSVKGRFTLSRDNATNTVYLQMNSLKPEDTAVYSCAAYDKRESPPYGYWGQGTQVTVSS”, which “polyreactivity (PSR sort gate)” value is on record?
Answer: low polyreactivity

Question: Which “polyreactivity (PSR sort gate)” value does the source give for “QVQLVETGRGLVQAGGSLRLSSAASGSTFGPNAMGWYRQAHGKVRELVAAITWSGSTTYYADSVKGRFTISRDIAKNTVYLQMNSLKPEDTPVYYCAALRGYRSNWRYGYWGQGTQVTVSS” here?
Answer: low polyreactivity

Question: For “QVQLVETWGGLVQAGGSLRLSCPASGSIFPRKAMGWYRQAPGKERELVAGISSGGSTNYADSVKGRFTISRDNAKNTVYLQMNSLKPEDTAVYYCAARQWIRNLGFGYSIYNYWGQGTQVTVSS”, which “polyreactivity (PSR sort gate)” value is on record?
Answer: high polyreactivity

Question: With “QVQLVGSGGGLVQAGGSLRLSCAASGRTFRAYAMGWYRQAPGKERELVAAIRSSGGSTYADSVKGRFTISRDNAKNTVYLQMNSLKPEDTAVYYFAKPIAPARNAYPAYDYWGQGTQVTVSS” as the sequence, how does the “polyreactivity (PSR sort gate)” value read?
Answer: high polyreactivity

Question: For “QVQLVGSGGGLVQAGGSLRLSCAASGSTIKYYAMGWYRQAPGKERELVARITSDGGSTFYADSVKGRFTISRDNAKNTAYVQMNSLKPEDPAVYYCNTAYAFRHWWFYPMDYWGQGTQVTVSA”, which “polyreactivity (PSR sort gate)” value is on record?
Answer: high polyreactivity

Question: With “QVQLVHSGGRLVQAGGRLRLSCAASGSTFSSYARGRYIQGPRKERELVAAISWNGGSTYYADSVKGRFTISRDNAKNTVYLQMNSLKPQDTAVYYCAAIYFRNTYSYGMDYWGQGTQVTVSS” as the sequence, how does the “polyreactivity (PSR sort gate)” value read?
Answer: high polyreactivity

Question: For “QVQLVKSGGGLVQAGGSLRLSCAASVRTILYNAIGWYRQAPGKESELVAAITGGGSTYYADSVKGRFTISRDNAKNTVYLQMNSLKPEDTAVYYCAADLSVVRYDYWGQGTQVTVSS”, which “polyreactivity (PSR sort gate)” value is on record?
Answer: low polyreactivity

Question: Which “polyreactivity (PSR sort gate)” value does the source give for “QVQLVLSGGGLVQAGGSLRLSCAASGNTIIRYAMGWYRQEPGKESELVAAISYSGGRTYYADSVKGRFTISRDNAKNTVYLQMNSLKPEDTAVYYCAARYYRSGYRKKIYYWGQGTQVTVSS” here?
Answer: high polyreactivity

Question: For “QVQLVQSFGGLVQAGGSLRLSCAASGRIFWPYAMGWYRQPPGKERELVAAITGSGSRTYYADSVKGRFTISRDYAKNTVYLHMNSLNREDTAVYYCAATSSTDYDYWGQGTQVTVSS”, which “polyreactivity (PSR sort gate)” value is on record?
Answer: low polyreactivity

Question: Which “polyreactivity (PSR sort gate)” value does the source give for “QVQLVQSGAGLVQAGGSLRLSCAPSGRTFWRYPMGLYRQAPGKERELVASISARGGSTYYADSVKGRFTISRDNAKNTVYLQMNSLKPEDTAVYYCKRQSWFTVGGFTYRYDYWGQGTQVTVSS” here?
Answer: high polyreactivity

Question: With “QVQLVQSGGGLVQAGGSLRLICAASGSNFYGNAMGWYRQAPGKERELVAAISRGGGYTYYADSVKGRFTISRDNAKNTVYLEMNSLKPEDTAVYYCDATRYLHPWYYPYYYWGQVTQVTVSS” as the sequence, how does the “polyreactivity (PSR sort gate)” value read?
Answer: low polyreactivity

Question: Which “polyreactivity (PSR sort gate)” value does the source give for “QVQLVQSGGGLVQAGGSLRLRCAASGRIFTPYAMGWNRQAPGQDRELVAAISASGTRTYYADSVKGRFTISRDNAKNTVYLQMKSLQAEDSAVYSCAAYKSGEPSDYWGQGTQVTVSS” here?
Answer: high polyreactivity

Question: For “QVQLVQSGGGLVQAGGSLRLSCAASGFTFRFYAMGWYRQATGKERELVASINWSGGRTYYADSVKGRFTISRDNAKNTVYLEMNSLKPVDTAVYYCATQYLIQTKYYSWGQGTQVTVSS”, which “polyreactivity (PSR sort gate)” value is on record?
Answer: high polyreactivity
